In paper doi:10.1101/2022.05.05.490751:

What was measured:
Assay in all cases: SPR
[1] = biological target: NYE 3A peptide on HLA-A*02:01
[2] = biological target: NYE 6V peptide on HLA-A*02:01
[3] = biological target: NYE 6T peptide on HLA-A*02:01
[4] = biological target: NYE 9V peptide (NYE-ESO157-165, heteroclitic 9V variant) on HLA-A*02:01
[5] = biological target: NYE 4D peptide on HLA-A*02:01
[6] = biological target: NYE 4E5E8E peptide on HLA-A*02:01
[7] = biological target: NYE 3Y peptide on HLA-A*02:01

Kd [1]: 7 µM
Kd [2]: 17 µM
Kd [3]: 161 µM
Kd [4]: 8 µM
Kd [5]: 139 µM
Kd [6]: 18 µM
Kd [7]: 55 µM
Substance: Soluble 1G4 TCR
